Patent publication US20260193348A1 (ANTENGENE BIOLOGICS, published 2026)
Positions count from the first letter of the chain named. Names and notes keep the numbering of the source. Blank lines part the entries; values can stand above or below the binder they belong to.

Legend:
[1] = biological target: T1, CD19 on NALM6 cells, Raji cells and primary B cells (human, UniProt P15391 20-556); assay: FACS on NALM6 cells expressing CD19, another experiment (FIG. 45B)
T1 construct: whole, on cells; Endogenous CD19 on human cell lines / donor B cells; also called NALM6 cells expressing CD19; Raji cells expressing CD19
T1 sequence (looked up): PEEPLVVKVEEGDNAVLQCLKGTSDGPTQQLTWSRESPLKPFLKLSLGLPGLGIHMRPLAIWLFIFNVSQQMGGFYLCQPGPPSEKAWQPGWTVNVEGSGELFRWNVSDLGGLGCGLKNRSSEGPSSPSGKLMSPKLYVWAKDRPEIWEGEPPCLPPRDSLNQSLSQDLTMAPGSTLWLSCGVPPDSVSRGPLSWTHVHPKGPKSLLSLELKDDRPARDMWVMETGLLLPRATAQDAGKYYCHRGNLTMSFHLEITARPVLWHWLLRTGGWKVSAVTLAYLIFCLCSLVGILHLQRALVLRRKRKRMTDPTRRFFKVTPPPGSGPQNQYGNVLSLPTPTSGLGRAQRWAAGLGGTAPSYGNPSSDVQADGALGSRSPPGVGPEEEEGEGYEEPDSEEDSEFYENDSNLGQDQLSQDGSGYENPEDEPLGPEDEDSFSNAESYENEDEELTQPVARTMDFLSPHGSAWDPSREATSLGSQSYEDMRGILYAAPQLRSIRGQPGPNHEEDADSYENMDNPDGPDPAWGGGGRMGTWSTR
Protocol: (§1) To evaluate the binding affinity of the generated bispecific antibodies to NALM6 cells, Raji cells, Primary B cells, DoHH2 cells, SU-DHL-1 cells and Jurkat cells, the NALM6 cells expressing CD19, Raji cells expressing CD19, Primary B cells, DoHH2 cells expressing CD20, SU-DHL-1 cells without expressing CD19 or CD20 and Jurkat cells expressing CD3 were stained by the test antibodies and the binding affinity was determined by FACS analysis. Primary B cells were isolated from healthy donors' PBMC by human B cell enrichment Kit (Stemcell #19054). The protocol of FACS analysis is described as follows: [0933] (a) The cells from each cell line above were harvested and centrifuged at 300 g for 5 min, and the supernatant were discarded. […] (b) The cells were washed 2 times with FACS buffer. [0935] (c) Step (a) was repeated. [0936] […] [0937] (e) Step (b) was repeated and the cells were resuspended with 100 μl/well diluted secondary antibody, and incubated at 4° C. for 45 minutes in the dark. [0938] (f) Step (b) was repeated and the cells were resuspended the cells with 150 μl/well FACS buffer and kept in dark for FACS analysis.

[2] = biological target: T1, CD19 on NALM6 cells, Raji cells and …; assay: FACS on primary B cells from healthy donors' PBMC (FIG. 45D)
Protocol: as §1

[3] = biological target: T2, CD3 on T cells / Jurkat cells (human, UniProt P07766 23-207; P04234 22-171; P09693 23-182); assay: FACS on Jurkat cells expressing CD3
T2 construct: whole, on cells; Native CD3 complex on CD3+ T cells isolated from normal donors or on Jurkat cells; also called human CD3; CD3+ T cells

[4] = biological target: T1, CD19 on NALM6 cells, Raji cells and …; assay: FACS on NALM6 cells expressing CD19 (FIG. 45A)
[5] = biological target: T1, CD19 on NALM6 cells, Raji cells and …; assay: FACS on Raji cells expressing CD19 (FIG. 45C)
Protocol: as §1

[6] = biological target: T3, CD3ε monomer (UniProt P07766 23-126); assay: ELISA, soluble protein coated at 0.2 or 2 ug/mL
T3 construct: also called nature CD3ε; denatured CD3ε monomer
T3 sequence (P07766 23-126): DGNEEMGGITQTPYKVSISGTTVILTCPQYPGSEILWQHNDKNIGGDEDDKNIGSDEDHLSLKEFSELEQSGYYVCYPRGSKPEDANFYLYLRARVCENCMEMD

T2 sequence (P07766 23-207, chain 1 of 3): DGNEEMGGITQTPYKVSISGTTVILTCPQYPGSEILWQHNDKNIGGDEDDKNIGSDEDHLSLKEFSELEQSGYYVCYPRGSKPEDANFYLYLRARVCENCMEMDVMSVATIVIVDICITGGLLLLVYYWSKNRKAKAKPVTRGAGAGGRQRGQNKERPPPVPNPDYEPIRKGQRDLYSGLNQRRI
T2 sequence (P04234 22-171, chain 2 of 3): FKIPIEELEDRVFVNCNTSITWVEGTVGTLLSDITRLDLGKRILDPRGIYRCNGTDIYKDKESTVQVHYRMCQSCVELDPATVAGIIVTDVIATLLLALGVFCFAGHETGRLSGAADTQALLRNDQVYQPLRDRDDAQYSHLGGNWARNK
T2 sequence (P09693 23-182, chain 3 of 3): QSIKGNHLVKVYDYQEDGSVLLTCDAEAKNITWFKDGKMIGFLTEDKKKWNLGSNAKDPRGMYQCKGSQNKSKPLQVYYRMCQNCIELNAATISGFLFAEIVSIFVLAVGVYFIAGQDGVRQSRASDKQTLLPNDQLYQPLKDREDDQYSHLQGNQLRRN

EC50 [1]: 0.609 nM | EC50 [2]: 0.468 nM | binding result [3]: binds | EC50 [4]: 4.36 nM | EC50 [5]: 1.13 nM
B1: ATG201-Y101F-19F (bispecific antibody, human IgG1, kappa, L234A L235A)
heavy 1: not shown
heavy 2: EVKLQESGPGLVAPSQSLSVTCTVSGVSLPDYGVSWIRQPPRKGLEWLGVIWGSETTYYNSALKSRLTIIKDNSKSQVFLKMNSLQTDDTAIYYCAKHYYYGGSYAMDYWGQGTSVTVSSASTKGPSVFPLAPSSKSTSGGTAALGCLVKDYFPEPVTVSWNSGALTSGVHTFPAVLQSSGLYSLSSVVTVPSSSLGTQTYICNVNHKPSNTKVDKKVEPKSCGGGGSGGGGSEVQLVQSGAEVKKPGSSVKVSCKASGYTFSSYVIHWVRQAPGQCLEWMGYINPYNDVIKYNEKFKGRVTLTSDKSTSTAYMELSSLRSEDTAVYYCARDSFYSYDGFAYWGQGTLVTVSSGGGGSGGGGSGGGGSGGGGSEIVLTQSPDFQSVTPKEKVTITCSASSSVSYMHWYQQKPDQSPKRLIYDTSKLASGVPSRFSGSGSGTDFTLTINSLEAEDAATYYCQQWSSNPPTFGCGTKVEIKGGGGSGGGGSDKTHTCPPCPAPEAAGGPSVFLFPPKPKDTLMISRTPEVTCVVVDVSHEDPEVKFNWYVDGVEVHNAKTKPREEQYNSTYRVVSVLTVLHQDWLNGKEYKCKVSNKALPAPIEKTISKAKGQPREPQVCTLPPSREEMTKNQVSLSCAVKGFYPSDIAVEWESNGQPENNYKTTPPVLDSDGSFFLVSKLTVDKSRWQQGNVFSCSVMHEALHNHYTQKSLSLSPGK
light: DIQMTQTTSSLSASLGDRVTISCRASQDISKYLNWYQQKPDGTVKLLIYHTSRLHSGVPSRFSGSGSGTDYSLTISNLEQEDIATYFCQQGNTLPYTFGGGTKLEITRTVAAPSVFIFPPSDEQLKSGTASVVCLLNNFYPREAKVQWKVDNALQSGNSQESVTEQDSKDSTYSLSSTLTLSKADYEKHKVYACEVTHQGLSSPVTKSFNRGEC
notes: CD19xCD3 Fab-scFv-Fab: two C19F Fabs, anti-CD3 scFv 40E9-L2H3-Y101F.H; L234A/L235A

EC50 [1]: 0.847 nM | EC50 [2]: 1.08 nM | binding result [3]: binds | EC50 [4]: 4.91 nM | EC50 [5]: 1.5 nM
B2: ATG201-N55S-19F (bispecific antibody, human IgG1, kappa, L234A L235A)
heavy 1: not shown
heavy 2: B1 heavy 2 with N288S, F334Y
light: B1 light
notes: CD19xCD3 Fab-scFv-Fab: two C19F Fabs, anti-CD3 scFv 40E9-L2H3-N55S.H; L234A/L235A

binding result [6]: no binding
B3: ch40E9 (antibody, V domains shown)
VH: EVQLQLSGPELVKPGASVKMSCKASGYTFSSYVIHWVKQKPGQGLEWIGYINPYNDVIKYNEKFKGKATLTSDKSSSTAYMELSSLTSEDSAVYYCARDSYYSYDGFAYWGQGTLVTVSA
VL: QIVLTQSPAIMSASPGEKVTMTCSASSSVSYMHWYQQKSGTSPKRWIYDTSKLASGVPARFSGSGSGTSYSLTISSMEAEDAATYYCQQWSSNPPTFGGGTKVEIK
notes: also called 40-C12-C10-E9

binding result [6]: no binding
B4: 40E9-L2H3 (antibody, V domains shown)
VH: EVQLVQSGAEVKKPGSSVKVSCKASGYTFSSYVIHWVRQAPGQCLEWMGYINPYNDVIKYNEKFKGRVTLTSDKSTSTAYMELSSLRSEDTAVYYCARDSYYSYDGFAYWGQGTLVTVSS
VL: EIVLTQSPDFQSVTPKEKVTITCSASSSVSYMHWYQQKPDQSPKRLIYDTSKLASGVPSRFSGSGSGTDFTLTINSLEAEDAATYYCQQWSSNPPTFGCGTKVEIK
notes: also called ch40E9-derived humanized antibody 40E9-L2H3

binding result [6]: no binding
B5: 40E9-L2H3-N55S.H (antibody, V domains shown)
VH: B4 VH with N55S
VL: B4 VL
notes: also called 40E9-N55S
